From the DeepSol protein solubility set

assay: soluble on expression in E. coli; label from the status in PepcDB or PDB records

Sequence | soluble on expression in E. coli
MSLTDINLKGGKLSIEQLNTIFETIPVEFDFIDENDIIRWSSANRHRLFKRTDADLGKHVLEVHPGHSQNHVKQVLHDMHSGDRDSISIMIKHHGQPVNIAFYALRDDQNKYLGCVEVTQDVSKQQTKGSFWRNIMQVLHKKEGHHHHHH | soluble
MGSDKIHHHHHHMTVDSPILTDTLVVGGGQAGIAMSEHLTGQGVPHIVLERDRIAQRWRTGRWDSLVANGPAWHDRFPGLEFEGLDPDGFASKDAVADYLEAYARKFNAPIRTGVEVVRAERNGGRYGFTVETSAGTYEAQRIVVATGPFQRPVIPAIAPRDPALTQIHSADYRNPGQLPEGAVLVIGAGSSGVQIADELQRAGREVYLSVGPHDRPPRRYRGRDFCWWLGVLGLWDQETVQPGREHVTIAVSGTDGGRTIEFRALAHQGITLVGVTKSFRDGVVAFENDLAENVARGDANHFALLDAADAYIARNGLSLPDEPQARRVPPDPACMTEPILQLDLAAANVTSIIWATGYAAEYGWLNVDAFDANGKPRHQRGVSSEPGVYFLGLPWLSRRGSAFLWGVWHDAKHIAGHIAMQRNYLSYPDFGQSQQ | not soluble
MRRKHDWLRETYRKSLEKIPERPVAHRTLSNIAPDPLYTPEDIGVLDPEYEEKRGFPGEFPYTRGVYGSMYRSKLWTMRMFAGFGTAEQTNERFKKLLKAGQTGLSVAFDLPTLMGYDSDHPLSKGEVGKCGVAVSSLADMEILFEGINLEEVTTSMTINSPANAIWAMYLAVAKKRGYDWKKLGGTIQNDILKEYIAQKEFIFPPEPSVKLVIDTFEWGPKNVPKWNFISVSGYHIREAGSTAVQELAWTLADGFEYVEAALKRGLDIDEFAPRISFFFDVHNDFFEEIAKFRAARRIWAKEMRYRYKAKNPQSWMLRTHAQTAGVSLTAQQPLNNIARVAIQALAAVLGGTNSLHTDAYDEALALPTEESATIALRTQQIIAYETGVTHTIDPLAGSYYVEWLTDEMERQAMEIIEEIRRMGGVVRAIEEGYFLRELAEASYRYQQEVERKERIIVGVNAFTDEIPLKVPIQLVDPEVERVQAERLARVRRERDPKRVEEALQGLRRAAVEGQNTMPHFVECALAYCTLGEMMDVLREVYGTYQEPAYV | soluble
MIVFSDLDRSIIYSNKFLNADSKYANIEIYREKEISYISLDTINLIKQIQYYGMFIPTTTRTVEQFKRIEFNKYGIYFPWSITSNGGVILKDNEILKSWSEKIDKLKSNYEPIESMIHKFKDYLNVDGITNFKVAEDTFFYIVVDLSRFNLDSIKEYTNILESKNWKFYVSGRKIYFIPKEISKENAIKYLTKELGIEYFYAVGDSIMDYGMLNISNKSYVLKHGDINKNEIENSFISSSFNGMSGTEEILSNILDENCLLNI | not soluble
MLKADYIPYTLKFKEPAGTSRGVLHTKQTYFVRVYDDTFPSRAGYGEAALFRGLSAEEGADYEERLAEVCNGVCGFTPDAWQAYPSLCFGMETALADFEGGGLLFPSAFTSGEAGIPINGLI | not soluble
MGCDFAIAKDFLLFFLTKPISMKLSVIIPIYNEIQTIEKILKKITTVMPEIPKEIVMVDDGSKDGTREWLVDTFGDPEQHPVLANVNLAGKFQCFPLDQSAETNGDRQGNSFVMPKEWEVKVIFHRQNQGKGGALHTAFAAATGDVLIIQDADLEYDPEDWGPMWKLIDGGWADVVYGSRFYGNPHRVLYFHHYLGNKLITSLIDLVCNINLTDIEVCYKMFRREVLEDLRLTCNDFGFEVEFTMKVTRSPKRWRIYEVGVAYYGRTFAEGKKINWRDGVKALGYIAKFWLTNALEHHHHHH | not soluble
EETIPLQTLRCYNDYTSHITCRWADTQDAQRLVNVTLIRRVNEDLLEPVSCDLSDDMPWSACPHPRCVPRRCVIPCQSFVVTDVDYFSFQPDRPLGTRLTVTLTQHVQPPEPRDLQISTDQDHFLLTWSVALGSPQSHWLSPGDLEFEVVYKRLQDSWEDAAILLSNTSQATLGPEHLMPSSTYVARVRTRLAPGSRLSGRPSKWSPEVCWDSQPGDEAQPQNLECFFDGAAVLSCSWEVRKEVASSVSFGLFYKPSPDAGEEECSPVLREGLGSLHTRHHCQIPVPDPATHGQYIVSVQPRRAEKHIKSSVNIQMAPPSLQVTKDGDSYSLRWETMKMRYEHIDHTFEIQYRKDTATWKDSKTETLQNAHSMALPALEPSTRYWARVRVRTSRTGYNGIWSEWSEARSWDTES | soluble
MAIGVQKKTSTPLDVGTEQEPTNLEKTIGTLRRCLQIAGTSNKPGSRSAKNSISEESNDLTMEESVPEASKWPHCQHMISQDEAPRNDELASPNIRIVAYKDESQINDIMRLITKDLSEPYSIYTYRYFLHNWPEYCFLAYDQTNNTYIGAVLCKLELDMYGRCKGYLAMLAVDESCRRLGIGTRLVRRALDAMQSKGCDEIVLETEVSNKNAQRLYSNLGFIRQKRLLKYYLNGGDAFRLKLIFTSRRVRSLNNQENYQPRCRVNEDDTPDEEEGTY | not soluble
MSGAIYRCMAIASEPLDALIIGAGHNGLVCAAYLARAGKRVLVLEAREVVGGAAVTEEFHPGFRNSVAAYTVSLLQPRVIADLALERHGLRVVPRRINNFLPLPNGDYLLAGAGRTAQDVARFSARDAAALPAYEARLEQLADVLRALALQPPPDVTDGGWLQALPQLWRAGKLGLQLQGLPLTLRQELLDLFTISAAEYLDRWFESAPIKALFGFDGIVGNYASPHTPGTAYVLLHHVFGQSNGVKGAWGHAIGGMGAITQAMAASAREYGAQLRTGCAVERVLVEQGHAVGVVTTAGETVRARAVVANVNPKLLYQRLMRPDDVPATTRERIAHYRCGSGTFRMNVALSRLPDFAALPGNGDHLTAGIILAPSLDYMDRAWHDARAFGWSREPVVELLIPSTLDDTLAPPGQHVASLFCQHVAPQLPDGRRWDDHREEVADLMIATVERYAPGFAASVLGRQVLSPLDLERMFGLVGGDIFHGALSLNQLFSARPLLGQGAYRGAVPGLYLCGSGTHPGGGVTGAPGHNAARVILGGLEHHHHHH | not soluble
MSNLKQLRTRIKSVKSTQKITKAMQLVSASKMAKIKSQIANSNFYIEAVSKMMSAILSIDMYELSIEEQKFFNTVPNKANLLIVMTSQRGLCGTFNYSIIKQVKNDIKELENKGEQIKLIIIGKKGYEALKRQYVNYIDSYFELPKIHDENLMLQVKQKIMSAVENLEVSNCVIYFNKFKNAMTQIMTRQQILPVAKYQDDSMIDNPIVNLVGFGYKERGVKPINNRRATSDIVGESKSIDYNYEYEGESLISNLINLYVNSQINYALLQSRASEEGARMTAMENATNNANDLISKLVLKLNRSRQAIITTELIEIIAGSEVV | not soluble
MAEIKHYQFNVVMTCSGCSGAVNKVLTKLEPDVSKIDISLEKQLVDVYTTLPYDFILEKIKKTGKEVRSGKQLAREVILAVHGMTCSACTNTINTQLRALKGVTKCDISLVTNECQVTYDNEVTADSIKEIIEDCGFDCEILRDS | soluble
GSGMKETAAAKFERQHMDSPDLGTTLLEQYCHRTTIGNFSGPYTYCNTTLDQIGTCWPQSAPGALVERPCPEYFNGIKYNTTRNAYRECLENGTWASRVNYSHCEPILDDFQRKYDLHY | soluble
MEVLHKPVLLRESVEFLTENGGKIYVDCTLGGGGHAKEILKKRKDIFLIGIDRDEEAIEIAKENLKEFEGRFSIYKANFKDLDLVLKEEGIDKVDGFLFDLGVSMYQLKGERGFTFQEDQPLDMRMDKEQTLTACKVVNNYPERELIRILKEYGEEKFAVRIAKAIVQRRKKKPIETTGELVDVILSVVPEYYKHGKIHPATRTFQAIRIEVNKELESLKEALEKTPYHFNSKGRLVVITFHSLEDRIVKHFIKEKEKEGIFRIITKKPVTPSEEEIRENPASRSAKLRVAEKI | soluble
MPVKKESNAELDLDWRCRDGSSLVASLQPKPDPQKTGNYRKAKVSTTVSIPTAKATGNAPKYLPPHLRNRQESENKEEDDESECNSDTEKHSVISDQFSDSVDETSVKKIRIHWRGRRWTRGIECIGVQVDSQITRYSKLDDKCVRKSNSGRETTQTGCISDFAFAEVARLLKTPEIELELFAVDVPPFIQGEPRESYFNAMEKTFNLENVTRVNAKRVRLIGLTISEMEAVLKWVSVENLVVIRVYSGKNSIDERGAIVIQNMLSIFPQLQVGSFHMIVSNPLGVAKTFDEIYSDRLVKTPIILKGLDEEPKFNMKITSCDIQVRRESKKKKVTQI | not soluble
MFSTKKSQGNLHKYIQRQSTDEFAVKAREHNYRARSAFKLIEINEKFKFLKPESTVIDIGCAPGSWLQVVVQKCPNGYASGVDLQNVLPIRGADILSLSDITDPAVKLKIREKLAHRQVDVVLSDMAPNPTGDNATDHLRLIELCRSVFRLFSVENEIELVKNGVYLCKIWDGSARAEFVRELSDRFSTVKTVKPTACRDNSAELYLFCRNFKK | not soluble
MAYQSKNTDEHVTFADALLSKRYRKAQNDFLNQVERLIDWRPIRTLINKKYTKRQNAIGAPAYDVILLFKMLLLETWYNLSDCALEERINDSITFSRFLGLKMEEVSPDHSTISRFRSALTELGLMDKLLAQFNKQLSRHHISVREGVLVDASLVETPHKPNGTITIEVADDREDNRSEAEKEAEEDYQKQVVRRRKGTDEEARWVYKQKRYHYGYKKHCLTNVQGIVQKVITTAANRSDTKEFIPLLQGANIPQGTAVLADKGYACGENRSYLQTHHLQDGIMHKAQRNRALTEEEKQGNKAISPIRSTIERTFGSIRRWFHGGRCRYRGLAKTHTQNILESIAFNLYRTPGIIMSSSLG | not soluble
TDAFFFAGFLPNAAAARKTRLETLRGVPGTLVFYESPKRLAASLRDMAEVLGGERPAALCRELTKKFEETRRDTLAGLAEALAEAPVKGEVVLLVDRARSG | not soluble
MFQIKKAAVLGSGVMGSGIAAHLANIGIPTLLLDIVPPALTKEEEAKGLTLEHKSVRNRFSNTAVQKLLKQKPAPLTVKGNLALIEAGNLEDDLERLADVDWIIEVVVENLDIKKKLFEKVDAVRKPGSIVSSNTSGISVEKMAEGRSDDFQKHFLGTHFFNPPRYLKLLEVIPTKKTDPQVLSFMKLFGEDVLGKGVVIAKDTPNFIGNRIGTYGLLVTLQEMVKRGYSIGEVDSVTGPLIGRPKSATFRTLDVVGLDTFVYVANNVYENVQEKERDVFKVPAFMHDMLDKKWLGSKTGQGFFLKQGKEILELNPETMEYEARKKLKAASIELSKQEKGLSNKLKALVYAKDRAGELLWNIITPTLLYSAKLHKEIADDIVAIDQAMKWGFGWEQGPFEVWDAIGVEKSVQKMEESGAVIPAWVKEMLEKGFTTFYKHDNGDSYYYDNGEYKLIECNKKAISLKQLKAKNGVLKKNSGASLIDLGDGILCLEFHSKSNAIGMDITQMINYAVDEVEKNYKGLVIGNQSKNFCVGANLAMILMEAQDDNYFEIEWVVKNFQDAMMKIKYSSKPVVAAPYGMTLGGGTEVCLPAASIQASSETYMGLVEVGVGLIPGGGGNKELYIKHLNKMANGVEFDLQKVANKVFETVAMAKVLTSGQEAVSHNFLGDKDGISVNGDHLLYDAKQKALALYEAGYKAPIRKKIPVVGETGYATLALGAEAMHLSGYISEYDLHIAKKLAYVIAGGKVPYGTEVDEQYLLDVEREAFISLVSEMKSQARMQHMLVKGKPLRN | not soluble
MGSDKIHHHHHHMCRWLAYTGNPIPLETVLFRAKHSLIDQSLHSRMGATTTNGDGFGIGWYGQPDEVPFIYRCVSPAWNDRNLREAARAIRSPLFVAHVRSATDTPVQETNCHPFRRGRWLFAHNGLIRRYHTLRRDLMMRIDPGLFASIEGSTDSEVMFHLALTFGLEHDPLAALERMAGAIEDAGAHHRVDAPLNMTVCATDGEQVVAVRYSSEHDSRSLFHSTSFRHLHELYPHDPRIRAIGDDAFLVLSEPLVDLHDAWEKIPESTAIIARRGDIRQVPFQPRRST | not soluble
